± gives the uncertainty stated by the source.
Assay: protein stability index of a GFP-peptide fusion (yeast GPS) (PSI 1-4); higher = more stable; sorted into four equal gates, so the index is relative within each strain
Outline: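 Peptides tiling yeast proteins in 17-residue segments were fused downstream of GFP, with Cherry expressed from the same plasmid. As a pooled library in yeast, mid-log cultures grown in leucine-free medium were sorted into four equal gates by GFP/Cherry fluorescence ratio. Gate plasmids were PCR-amplified and Illumina-sequenced, and barcodes linked reads to strains. Each peptide received a protein stability index equal to the sum of each gate's read frequency times its gate number.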

Row | Sequence | protein stability index (doa10∆) | protein stability index (pdr5∆) | protein stability index (san1∆) | protein stability index (ubr1∆)
1 | GADVTNTTQDNGGDKEL [YCS4] | 3.18 ± 0.12 | 3.19 ± 0.083 | 3.1 ± 0.065 | 3.26 ± 0.074
2 | GAHGNSDPVCLFVCNKD [POP3] | 3 ± 0.098 | 3.37 ± 0.12 | 3.07 ± 0.084 | 2.8 ± 0.059
3 | GAISAVAATNTPIIFIG [SRP54] | 2.85 ± 0.085 | 3.42 ± 0.17 | 2.69 ± 0.073 | 2.66 ± 0.086
4 | GAKVKTMRRQKLTILQE [RET1] | 1.43 ± 0.088 | 2.35 ± 0.06 | 2.05 ± 0.14 | 2.22 ± 0.086
5 | GALDVEGLCIVAGSKCW [RRP45] | 2.83 ± 0.12 | 2.96 ± 0.11 | 2.87 ± 0.077 | 2.9 ± 0.13
6 | GANDLGFTASVSNQENA [MED1] | 3.06 ± 0.083 | 3.17 ± 0.11 | 2.93 ± 0.078 | 3.39 ± 0.11
7 | GASTGNANTGFSFGGTQ [YGL172W/NUP49] | 2.06 ± 0.067 | 2.12 ± 0.054 | 1.58 ± 0.097 | 2.33 ± 0.063
8 | GAVGLKDLTLCRYSCLA [YCS4] | 2.4 ± 0.095 | 2.42 ± 0.1 | 1.94 ± 0.12 | 2.13 ± 0.085
9 | GCGTVKRFNIGADPNYR [RPR2] | 3.15 ± 0.12 | 3.36 ± 0.092 | 3.33 ± 0.09 | 3.46 ± 0.068
10 | GCSKICDLSSKFNKSKA [YCS4] | 3.08 ± 0.087 | 2.82 ± 0.093 | 3.16 ± 0.045 | 2.99 ± 0.057
11 | GDDVVNDVQGIDDVQTI [RPP1] | 3.2 ± 0.15 | 3.46 ± 0.14 | 3.42 ± 0.067 | 3.18 ± 0.081
12 | GDHSSVPVALKGQGPFT [YMR129W/POM152] | 1.87 ± 0.25 |  |  | 1.83 ± 0.2
13 | GDTVRILDTSQSESRQK [SNU114] | 2.81 ± 0.051 | 2.96 ± 0.054 | 2.77 ± 0.05 | 2.9 ± 0.04
14 | GDVKNMEDVKIQKEEEP [SWI3] | 3.45 ± 0.14 | 3.4 ± 0.2 | 3.43 ± 0.085 | 3.14 ± 0.12
15 | GDYDSHDISRYVRAKFL [PRP8] | 2.08 ± 0.077 | 2.11 ± 0.086 | 1.66 ± 0.16 | 1.43 ± 0.055
16 | GEEDAVDLLLEIESIDK [RPN1] | 3.25 ± 0.11 | 3.08 ± 0.14 | 3.25 ± 0.08 | 3.33 ± 0.057
17 | GEITFDGIGGLTEQIRE [RPT4] | 3.34 ± 0.12 | 3.45 ± 0.099 | 3.21 ± 0.093 | 3.54 ± 0.062
18 | GESIMSEEPTDFGFDLD [MCD1] | 3.1 ± 0.13 | 3.25 ± 0.17 | 3.34 ± 0.072 | 3.24 ± 0.095
19 | GFEQVKIALGSPIVNVL [RRI2] | 1.56 ± 0.15 | 2.78 ± 0.2 | 1.48 ± 0.25 | 2.52 ± 0.12
20 | GFERLTVNEPQMSDKHA [SRB7] | 3.06 ± 0.12 | 3.36 ± 0.082 | 3.25 ± 0.14 | 3.16 ± 0.051
21 | GFETSKNIKIIMATNRL [RPT6] | 2.87 ± 0.15 | 2.54 ± 0.084 | 2.36 ± 0.066 | 3.28 ± 0.063
22 | GFFENIETEFLLFTVKL [IRR1] | 3.12 ± 0.077 | 3.2 ± 0.11 | 3.24 ± 0.049 | 3.12 ± 0.07
23 | GFKTPKTAIEGSYIDKK [RPS11A] | 2.98 ± 0.043 | 3.21 ± 0.052 | 3.12 ± 0.032 | 3.201 ± 0.031
24 | GFNMKKITTSTEDQKVT [SRP68] | 2.84 ± 0.065 | 2.67 ± 0.051 | 2.83 ± 0.074 | 2.42 ± 0.04
25 | GFNSIWKIPQNDIPQTE [SSN2] | 3.09 ± 0.19 | 3.28 ± 0.28 | 3.18 ± 0.15 | 3.25 ± 0.076
